What all share (assay): pull-down
The target in assay [1] is the active ARF1 mutants ARF-Q71L and ARF1-Δ17-Q71L.
A further assay concerns the target GST-ARF1-Q71L (human, UniProt P84077 1-181, Q71L).
In a further assay the target is GST-ARF1 Δ17-Q71L (human, UniProt P84077 18-181, Q71L).
Sequence of GST-ARF1 Δ17-Q71L (P84077 18-181 Q71L): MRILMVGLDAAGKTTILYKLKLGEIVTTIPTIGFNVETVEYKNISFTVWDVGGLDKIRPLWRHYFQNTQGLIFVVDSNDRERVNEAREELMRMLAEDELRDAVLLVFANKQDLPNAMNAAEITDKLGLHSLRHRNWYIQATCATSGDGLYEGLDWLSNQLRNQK

Sequence of GST-ARF1-Q71L (P84077 whole entry Q71L): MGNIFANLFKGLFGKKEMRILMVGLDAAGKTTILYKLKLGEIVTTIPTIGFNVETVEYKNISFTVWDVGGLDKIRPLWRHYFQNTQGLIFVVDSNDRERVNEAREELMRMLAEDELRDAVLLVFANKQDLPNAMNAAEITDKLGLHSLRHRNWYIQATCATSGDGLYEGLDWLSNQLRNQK

“His-tagged C1b domain of PKD2 (domain or fragment)” showed a fold binding compared with wild-type or dominant-negative ARF1 in assay [1] of 1.5 to 1.75 fold.

B1: EGFP-PKD2-WT (protein kinase D2, wild type) (enzyme, UniProt Q9BZL6 1-878, looked up)
chain: MATAPSYPAGLPGSPGPGSPPPPGGLELQSPPPLLPQIPAPGSGVSFHIQIGLTREFVLLPAASELAHVKQLACSIVDQKFPECGFYGLYDKILLFKHDPTSANLLQLVRSSGDIQEGDLVEVVLSASATFEDFQIRPHALTVHSYRAPAFCDHCGEMLFGLVRQGLKCDGCGLNYHKRCAFSIPNNCSGARKRRLSSTSLASGHSVRLGTSESLPCTAEELSRSTTELLPRRPPSSSSSSSASSYTGRPIELDKMLLSKVKVPHTFLIHSYTRPTVCQACKKLLKGLFRQGLQCKDCKFNCHKRCATRVPNDCLGEALINGDVPMEEATDFSEADKSALMDESEDSGVIPGSHSENALHASEEEEGEGGKAQSSLGYIPLMRVVQSVRHTTRKSSTTLREGWVVHYSNKDTLRKRHYWRLDCKCITLFQNNTTNRYYKEIPLSEILTVESAQNFSLVPPGTNPHCFEIVTANATYFVGEMPGGTPGGPSGQGAEAARGWETAIRQALMPVILQDAPSAPGHAPHRQASLSISVSNSQIQENVDIATVYQIFPDEVLGSGQFGVVYGGKHRKTGRDVAVKVIDKLRFPTKQESQLRNEVAILQSLRHPGIVNLECMFETPEKVFVVMEKLHGDMLEMILSSEKGRLPERLTKFLITQILVALRHLHFKNIVHCDLKPENVLLASADPFPQVKLCDFGFARIIGEKSFRRSVVGTPAYLAPEVLLNQGYNRSLDMWSVGVIMYVSLSGTFPFNEDEDINDQIQNAAFMYPASPWSHISAGAIDLINNLLQVKMRKRYSVDKSLSHPWLQEYQTWLDLRELEGKMGERYITHESDDARWEQFAAEHPLPGSGLPTDRDLGGACPPQDHDMQGLAERISVL
B1: the “fold binding compared with ARF1-WT or ARF1-T31N” value with GST-ARF1-Q71L came to 2 fold. Also, the “fold binding compared with ARF1-WT” value with GST-ARF1 Δ17-Q71L amounted to 2 fold.

The values above are taken from paper PMC2836954 (Molecular Biology of the Cell, 2010).
